Test results from publication PMC11922745, “Reconstitution of SPO11-dependent double-strand break formation” (Nature, 2024).
Residue numbers refer to the chain shown, from its start.

How the values were obtained:
[1] = biological target: T1, SPO11 (beta isoform);TOP6BL (Mus musculus;Mus musculus, UniProt Q9WTK8;J3QMY9 1-396;1-579, |); assay: EMSA; double-end binding disfavoured at 0.8 nM, restored at higher protein; Hairpin EMSA: 25 mM Tris-HCl pH 7.5, 100 mM NaCl, 5 mM MgCl2, 7.5% glycerol, 2 mM DTT, 1 mg/ml BSA, 0.1 nM DNA, 30 min 30 C; cleavage-oligo EMSA: 25 mM HEPES-NaOH pH 7.5, 50 mM NaCl, 5 mM MgCl2, 7.5% glycerol, 1 mg/ml BSA, 2 mM DTT, 4 C; conditions: protein: recombinant;recombinant; tags: N-terminal Flag-TEV;untagged; copies: 1;1; label: 5'-32P; 5' overhang 2 nt (TA) at both ends
T1 sequence 1: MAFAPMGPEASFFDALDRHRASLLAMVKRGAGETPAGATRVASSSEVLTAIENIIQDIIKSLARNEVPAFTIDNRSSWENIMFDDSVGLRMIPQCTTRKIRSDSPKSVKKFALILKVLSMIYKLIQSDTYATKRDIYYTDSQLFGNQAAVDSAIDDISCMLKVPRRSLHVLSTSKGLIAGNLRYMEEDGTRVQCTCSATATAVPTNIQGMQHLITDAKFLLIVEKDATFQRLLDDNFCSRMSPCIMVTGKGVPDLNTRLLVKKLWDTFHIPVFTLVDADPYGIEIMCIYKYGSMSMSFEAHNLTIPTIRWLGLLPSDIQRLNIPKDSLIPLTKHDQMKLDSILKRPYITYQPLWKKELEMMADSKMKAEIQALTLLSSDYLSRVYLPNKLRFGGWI
T1 sequence 2: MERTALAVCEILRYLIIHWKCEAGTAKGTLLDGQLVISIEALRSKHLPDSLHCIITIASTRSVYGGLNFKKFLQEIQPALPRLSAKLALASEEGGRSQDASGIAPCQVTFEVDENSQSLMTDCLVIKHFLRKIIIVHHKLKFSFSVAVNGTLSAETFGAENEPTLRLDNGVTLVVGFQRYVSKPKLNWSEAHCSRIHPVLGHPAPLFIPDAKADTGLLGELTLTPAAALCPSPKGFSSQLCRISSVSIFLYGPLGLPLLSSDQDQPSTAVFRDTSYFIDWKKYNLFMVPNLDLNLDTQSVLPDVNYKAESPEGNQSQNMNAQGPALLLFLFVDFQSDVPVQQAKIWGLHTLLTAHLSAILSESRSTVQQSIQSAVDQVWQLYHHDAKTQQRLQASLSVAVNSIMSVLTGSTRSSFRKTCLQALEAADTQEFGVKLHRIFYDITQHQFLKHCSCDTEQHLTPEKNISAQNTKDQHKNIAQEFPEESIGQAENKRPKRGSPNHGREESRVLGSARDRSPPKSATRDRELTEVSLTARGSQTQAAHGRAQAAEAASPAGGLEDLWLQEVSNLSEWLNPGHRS

[2] = biological target: T1, SPO11 (beta isoform);TOP6BL; assay: EMSA; 5 mM Mg2+, 50 mM NaCl, 4 C; apparent Kd for first monomer; doubly bound complexes formed; Hairpin EMSA: 25 mM Tris-HCl pH 7.5, 100 mM NaCl, 5 mM MgCl2, 7.5% glycerol, 2 mM DTT, 1 mg/ml BSA, 0.1 nM DNA, 30 min 30 C; cleavage-oligo EMSA: 25 mM HEPES-NaOH pH 7.5, 50 mM NaCl, 5 mM MgCl2, 7.5% glycerol, 1 mg/ml BSA, 2 mM DTT, 4 C; conditions: protein: recombinant;recombinant; tags: N-terminal Flag-TEV;untagged; copies: 1;1; label: 32P (5' labelled, then ligated); closed dumbbell, 44 bp duplex with two A4 hairpin loops
[3] = biological target: T1, SPO11 (beta isoform);TOP6BL; assay: EMSA; double-end binding; Hairpin EMSA: 25 mM Tris-HCl pH 7.5, 100 mM NaCl, 5 mM MgCl2, 7.5% glycerol, 2 mM DTT, 1 mg/ml BSA, 0.1 nM DNA, 30 min 30 C; cleavage-oligo EMSA: 25 mM HEPES-NaOH pH 7.5, 50 mM NaCl, 5 mM MgCl2, 7.5% glycerol, 1 mg/ml BSA, 2 mM DTT, 4 C; conditions: protein: recombinant;recombinant; tags: N-terminal Flag-TEV;untagged; copies: 1;1; label: 5'-32P; 5' overhang 2 nt (TA) at both ends
[4] = biological target: T1, SPO11 (beta isoform);TOP6BL; assay: EMSA; double-end binding possible at 0.8 nM; Hairpin EMSA: 25 mM Tris-HCl pH 7.5, 100 mM NaCl, 5 mM MgCl2, 7.5% glycerol, 2 mM DTT, 1 mg/ml BSA, 0.1 nM DNA, 30 min 30 C; cleavage-oligo EMSA: 25 mM HEPES-NaOH pH 7.5, 50 mM NaCl, 5 mM MgCl2, 7.5% glycerol, 1 mg/ml BSA, 2 mM DTT, 4 C; conditions: protein: recombinant;recombinant; tags: N-terminal Flag-TEV;untagged; copies: 1;1; label: 5'-32P; 5' overhang 2 nt (TA) at both ends
[5] = biological target: T2, Flag-tagged mouse SPO11 (β splicing isoform), wild type (mouse, UniProt Q9WTK8-1 1-396); assay: SEC; proteins co-expressed in FreeStyle 293-F cells; lysate (25 mM HEPES-NaOH pH 7.5, 500 mM NaCl) on anti-Flag M2 affinity gel, eluted with Flag peptide, then Superdex 200 Increase 10/300 GL; fractions on Coomassie-stained SDS-PAGE; conditions: partners not purified
T2 construct: mouse SPO11, β splicing isoform (includes exon 2), UniProt Q9WTK8-1, full-length optimized coding DNA; A TEV cleavage site lies between the Flag tag and SPO11; no cleavage is described; also called Flag–SPO11; mSPO11; not shown: Flag, N-terminal, kept
T2 sequence (looked up): T1 sequence 1

[6] = biological target: T3, SPO11 Y138F;TOP6BL (Mus musculus;Mus musculus, UniProt Q9WTK8;J3QMY9 1-396;1-579, Y138F|); assay: EMSA; 5 mM Mg2+; apparent Kd; Hairpin EMSA: 25 mM Tris-HCl pH 7.5, 100 mM NaCl, 5 mM MgCl2, 7.5% glycerol, 2 mM DTT, 1 mg/ml BSA, 0.1 nM DNA, 30 min 30 C; cleavage-oligo EMSA: 25 mM HEPES-NaOH pH 7.5, 50 mM NaCl, 5 mM MgCl2, 7.5% glycerol, 1 mg/ml BSA, 2 mM DTT, 4 C; conditions: protein: recombinant;recombinant, tags: N-terminal Flag-TEV;untagged, copies: 1;1, label: 5'-32P, 5' overhang 2 nt
T3 sequence 1: T1 sequence 1 with Y138F
T3 sequence 2: T1 sequence 2

[7] = biological target: T4, SPO11 E224A;TOP6BL (Mus musculus;Mus musculus, UniProt Q9WTK8;J3QMY9 1-396;1-579, E224A|); assay: EMSA; 5 mM Mg2+; DNA binding retained; Kd value only in figure; Hairpin EMSA: 25 mM Tris-HCl pH 7.5, 100 mM NaCl, 5 mM MgCl2, 7.5% glycerol, 2 mM DTT, 1 mg/ml BSA, 0.1 nM DNA, 30 min 30 C; cleavage-oligo EMSA: 25 mM HEPES-NaOH pH 7.5, 50 mM NaCl, 5 mM MgCl2, 7.5% glycerol, 1 mg/ml BSA, 2 mM DTT, 4 C; conditions: protein: recombinant;recombinant, tags: N-terminal Flag-TEV;untagged, copies: 1;1, label: 5'-32P, 5' overhang 2 nt
T4 sequence 1: T1 sequence 1 with E224A
T4 sequence 2: T1 sequence 2

[8] = biological target: T1, SPO11 (beta isoform);TOP6BL; assay: EMSA; 5 mM Mg2+; apparent Kd, end binding; second shift at >=25 nM; Hairpin EMSA: 25 mM Tris-HCl pH 7.5, 100 mM NaCl, 5 mM MgCl2, 7.5% glycerol, 2 mM DTT, 1 mg/ml BSA, 0.1 nM DNA, 30 min 30 C; cleavage-oligo EMSA: 25 mM HEPES-NaOH pH 7.5, 50 mM NaCl, 5 mM MgCl2, 7.5% glycerol, 1 mg/ml BSA, 2 mM DTT, 4 C; conditions: protein: recombinant;recombinant, tags: N-terminal Flag-TEV;untagged, copies: 1;1, label: 5'-32P, 5' overhang 2 nt

B1: 27 bp double-overhang duplex (dsDNA)
DNA 1: TAGCAATGTAATCGTCTATGACGTTAGCG
DNA 2: TACGCTAACGTCATAGACGATTACATTGC
binding result [1]: binds

B2: oligonucleotide cleavage substrate (44 bp, A4 loops at both ends) (structured_DNA)
DNA: CGGTTCAAAAGAACCGGAGCTGAATGAAGCCATACCAAACGACGAGCGTGACACAAAAGTGTCACGCTCGTCGTTTGGTATGGCTTCATTCAGCTC
modifications: covalently closed circle (ligated)
Kd [2]: 1.8 nM

B3: 28 bp double-overhang duplex (dsDNA)
DNA 1: TAGCAATGTAATCGTCTATGACGTTAGCGC
DNA 2: TAGCGCTAACGTCATAGACGATTACATTGC
binding result [3]: binds

B4: 23 bp double-overhang duplex (dsDNA)
DNA 1: TAGCAATGTAATCGTCTATGACGTT
DNA 2: TAAACGTCATAGACGATTACATTGC
binding result [4]: binds

B5: mouse TOP6BL, untagged (natural protein, UniProt J3QMY9-1 1-579, looked up)
chain: T1 sequence 2
notes: mouse TOP6BL, UniProt J3QMY9-1, untagged, optimized coding DNA
stoichiometry N [5]: 1

B6: 24 bp double-overhang duplex (dsDNA)
DNA 1: TAGCAATGTAATCGTCTATGACGTTA
DNA 2: TATAACGTCATAGACGATTACATTGC
binding result [1]: binds

B7: 25 bp double-overhang duplex (dsDNA)
DNA 1: TAGCAATGTAATCGTCTATGACGTTAG
DNA 2: TACTAACGTCATAGACGATTACATTGC
binding result [1]: binds

B8: 26 bp double-overhang duplex (dsDNA)
DNA 1: TAGCAATGTAATCGTCTATGACGTTAGC
DNA 2: TAGCTAACGTCATAGACGATTACATTGC
binding result [1]: binds

TAGCAATGTAATCGTCTATGACGTTAACGTCATAGACGATTACATTGC (structured_DNA) [25 bp hairpin, 2-nt 5' overhang]
Kd [6]: 0.57 ± 0.03 nM
binding result [7]: binds
Kd [8]: 0.59 ± 0.05 nM

B9: 22 bp double-overhang duplex (dsDNA)
DNA 1: TAGCAATGTAATCGTCTATGACGT
DNA 2: TAACGTCATAGACGATTACATTGC
binding result [4]: binds
